Tests used:
ESC-NPCs = assay: GDF-11-induced upregulation of EMT marker Fibronectin in ESC-NPCs (immunofluorescence); format: cell-based; conditions: ESC-derived NPCs
Experimental: FIG. 1. Smad2 inhibition (A) or simultaneous culture with GDF-15 (B) blocks GDF-11-induced upregulation of EMT marker Fibronectin in ESC-NPCs. Scale bar=100 μm.
(A) ESC-derived NPCs were pre-treated with DMSO or Smad2 inhibitor SB431542 (10 μM) for 1 h and then co-treated with PBS or GDF-11 (50 ng/ml) for another 7 days before harvest. (B) SC-derived NPCs were pre-treated with PBS or GDF-15 (50 ng/ml) for 1 h and then co-treated with PBS or GDF-11 (16.7 ng/ml) for another 7 days before harvest. GDF-15 was added daily while SB431542 and GDF-11 was only added one time in the beginning. Nucleus (DPAI) and EMT (Fibronectin) marker were then detected by immunofluorescence.

ARPE-19 cells = assay: TGFβ-2-induced upregulation of phosph-Smad2 and EMT marker Fibronectin in ARPE-19 cells (Western blot); format: cell-based, Human; conditions: N=3, P<0.05
Experimental: FIG. 2: Simultaneous culture with GDF-15 reduces TGFβ-2-induced upregulation of phosph-Smad2 (A) and EMT marker Fibronectin (B) in ARPE-19 cells. (N=3, *P<0.05).
(N=3, *P<0.05). Human adult retinal pigment epithelial cells (ARPE-19) were pre-treated with PBS or GDF-15 (50 ng/ml) for 1 h and then co-treated with PBS or TGFβ-2 (1 ng/ml) for another hour (A) or 2 days (B) before harvest. For Fibronection detection, GDF-15 was added daily while TGFβ-2 was only added one time in the beginning. GAPDH (loading control), p-Smad2 and Fibronectin proteins were then detected by Western blot.

Q: With `NC(=O)c1ccc(-c2nc(-c3ccc4c(c3)OCO4)c(-c3ccccn3)[nH]2)cc1` [SB431542, reference compound] as the molecule, how does the “GDF-11-induced upregulation of EMT marker Fibronectin” value (ESC-NPCs; SB431542 10 μM pre-treated 1 h, then co-treated with GDF-11 (50 ng/ml) 7 days) read?
A: blocks

B1: GDF-15: secreted ligand of the TGF superfamily of proteins; human GDF-15 protein, SEQ ID NO: 1 (protein, listed as Homo sapiens)
chain: MPGQELRTVNGSQMLLVLLVLSWLPHGGALSLAEASRASFPGPSELHSEDSRFRELRKRYEDLLTRLRANQSWEDSNTDLVPAPAVRILTPEVRLGSGGHLHLRISRAALPEGLPEASRLHRALFRLSPTASRSWDVTRPLRRQLSLARPQAPALHLRLSPPPSQSDQLLAESSSARPQLELHLRPQAARGRRRARARNGDHCPLGPGRCCRLHTVRASLEDLGWADWVLSPREVQVTMCIGACPSQFRAANMHAQIKTSLHRLKPDTVPAPCCVPASYNPMVLIQKTDTGVSLQTYDDLLAKDCHCI
Q: For B1, which “GDF-11-induced upregulation of EMT marker Fibronectin” value (ESC-NPCs; GDF-15 50 ng/ml pre-treated 1 h (added daily), then co-treated with GDF-11 (16.7 ng/ml) 7 days) is on record?
A: blocks

Q: What about the “TGFβ-2-induced upregulation of EMT marker Fibronectin” value (ARPE-19 cells; GDF-15 50 ng/ml pre-treated 1 h (added daily), then co-treated with TGFβ-2 (1 ng/ml) 2 days) of the same molecule?
A: reduces

Q: And the “TGFβ-2-induced upregulation of phosph-Smad2” value (ARPE-19 cells; GDF-15 50 ng/ml pre-treated 1 h, then co-treated with TGFβ-2 (1 ng/ml) another hour)?
A: reduces

From patent US12728152B2, “Growth and differentiation factor 15 for treatment of proliferative vitreoretinopathy therapy” (The Board of Trustees of the Leland Stanford Junior …, priority 2020, dated 2026)
